Reference: US20240327495A1 (OXFORD UNIVERSITY INNOVATION, published 2024)
Residue numbers refer to the chain shown, from its start. In names and notes the source's numbering stands.

Legend:
[1] = biological target: T1, combined repetitive oligopeptide domain of C. difficile toxin A (residues 2304-2710, CROP) (Clostridium difficile, UniProt P16154 2304-2710); test: SPR, equilibrium analysis, biotinylated AviTag-His6-CROP captured on the chip
T1 construct: range 2304-2710; also called AviTag-His6-CROP; TcdA CROP

[2] = biological target: T2, C. difficile toxin B glucosyltransferase domain (GTD, residues 2-543) (Clostridium difficile, UniProt P18177 2-543); test: ELISA on antigen-coated wells, anti-SBTI antibody detection
T2 construct: range 2-543; also called AviTag-His6-GTD; TcdB GTD

hen egg lysozyme (HEL) = hen egg lysozyme (HEL) (hen, UniProt P00698 19-147); test: ELISA, antigen-coated wells, 500 nM gastrobody, detected with polyclonal anti-SBTI antibody
[3] = biological target: T2, C. difficile toxin B …; test: SPR, immobilised GTD
[4] = biological target: T2, C. difficile toxin B …; test: SPR, immobilised GTD; remark: listed apart in the source
[5] = biological target: T2, C. difficile toxin B …
[6] = biological target: T1, combined repetitive oligopeptide domain …; test: ELISA on antigen-coated wells, anti-SBTI antibody detection
[7] = biological target: T2, C. difficile toxin B …; test: SPR, kinetic analysis, biotinylated AviTag-His6-GTD captured on the chip
trypsin = biological target: T3, trypsin (cow, UniProt P00760 24-246); test: plate assay, trypsin-coated wells, bound gastrobody detected with biotinylated GTD and streptavidin-HRP
T3 construct: also called trypsin from cow pancreas (T1426, Merck)

[8] = biological target: T2, C. difficile toxin B …; test: SPR, GTD

B1: anti-CROP gastrobody G9 (designed binder, not shown: small tags and cut ends)
chain: DFVLDNEGNPLENGGTYYILSHPDLFGGIRAAPTGNERCPLTVVQSLYLFDKGIGTIISSPYRIRFIAEGHPLSLKFDSFAVIMLCVGIPTEWSVVEDLPEGPAVKIGENKDAMDGWFRLERVSDDEFNNYKLVFCPQQAEDDKCGDIGISIDHDDGTRRLVVSKNKPLVVQFQKLDKESL
Kd [1]: 4.6 µM

B2: anti-CROP gastrobody T42 (designed binder, not shown: small tags and cut ends)
chain: B1 chain with H22V, D24H, L25Q, L47R, Y48N, L49K, F50W
Kd [1]: 7.3 µM

B3: anti-CROP gastrobody G22 (designed binder, not shown: small tags and cut ends)
chain: B1 chain with H22L, P23Q, D24N, L25R, L47H, Y48D, L49F, F50M
Kd [1]: ~50 µM

B4: anti-CROP gastrobody T12 (designed binder, not shown: small tags and cut ends)
chain: B1 chain with H22I, P23A, D24G, L25T, Y48V, L49F, F50P
notes: also called anti-CROP clone T12; anti-CROP (T12)
binding result [2]: no binding (tested: 500 nM gastrobody) | Kd [1]: 1.7 µM | binding result (hen egg lysozyme (HEL)): no binding (tested: 500 nM)

B5: anti-GTD gastrobody GT47 (designed binder, not shown: small tags and cut ends)
chain: DFVLDNEGNPLENGGTYYILSDYGRQLFGGIRAAPTGNERCPLTVVQSLFRNHRDKGIGTIISSPYRIRFIAEGHPLSLKFDSFAVIMLCVGIPTEWSVVEDLPEGPAVKIGENKDAMDGWFRLERVRPTSSTGNNYKLVFCPQQAEDDKCGDIGISIDHDDGTRRLVVSKNKPLVVQFQKLDKESL
fold improvement of affinity against GT01 [3]: ~8 fold | Kd [4]: 10.3 nM | koff [4]: 0.022 s⁻¹ | kon [4]: 2.1e+06 M⁻¹ s⁻¹

B6: anti-GTD gastrobody GT01 (designed binder, not shown: small tags and cut ends)
chain: DFVLDNEGNPLENGGTYYILSDYGRQLFGGIRAAPTGNERCPLTVVQSLFRNHRDKGIGTIISSPYRIRFIAEGHPLSLKFDSFAVIMLCVGIPTEWSVVEDLPEGPAVKIGENKDAMDGWFRLERVSDDEFNNYKLVFCPQQAEDDKCGDIGISIDHDDGTRRLVVSKNKPLVVQFQKLDKESL
notes: also called anti-GTD (GT01); His6-Thrombin site-SpyTag003-GT01
EC50 (read off the curve) [5]: ~7 nM | binding result [6]: no binding (tested: 500 nM gastrobody) | Kd [7]: 85 nM | koff [7]: 0.036 s⁻¹ | kon [7]: 420000 M⁻¹ s⁻¹ | binding result (hen egg lysozyme (HEL)): no binding (tested: 500 nM) | EC50 (read off the curve) (trypsin): ~20 nM

B7: GT01 R63A (designed binder, not shown: small tags and cut ends)
chain: B6 chain with R67A
Kd [8]: 78.7 nM | binding result (trypsin): no binding (tested: 200 nM)

B8: anti-GTD gastrobody GT44 (designed binder, not shown: small tags and cut ends)
chain: B6 chain with S128N, D129P, D130S, E131N, F132G
Kd [4]: 17.4 nM | koff [4]: 0.022 s⁻¹ | kon [4]: 1.3e+06 M⁻¹ s⁻¹
